Test system: MS2 coat protein
Assay: apparent KD of MS2 coat protein; designed switch direction (-1 OFF switch, 1 ON switch): 1; higher = weaker reporter binding
In short: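 Stalled E. coli RNA polymerase transcribed designed RNA switches on Illumina chips, which were then titrated with SNAP-549-labelled MS2 coat protein, doubling from 0.7 or 1.5 nM to 3 µM. Steps lasted from 0.8–1.5 h at the lowest concentration to 10–20 min at the highest. The apparent KD is each design's median over clusters of curve-fitted normalised fluorescence.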

[1] = Eterna round: R95, input ligand: FMN 200 uM
[2] = Eterna round: R95, input ligand: microRNA oligo, concentration not stated
[3] = Eterna round: R95, input ligand: none
[4] = input ligand: microRNA oligo, concentration not stated

Sequence: AAAGAACAUGAGGAUCACCCAUGUGGAAGAGGCACAGGAUAUCACCUCGCAAGUACGAGGUGAGAAGGGUGAUGAU [Araa] (puzzle: Same State 1)
- apparent KD of MS2 coat protein [1]: 183 nM
- apparent KD of MS2 coat protein [2]: 154 nM
- apparent KD of MS2 coat protein [3]: 426 nM

Sequence: ACAAGCUUUUUGCUCAUCUUAUGUCCGAAACAUGAGGAUCACCCAUGUAUAGAUUAUGUGUUGUUGUAGAUGCAAGA [JR_SHM208A_Sub062] (puzzle: Sensor for hsa-mir-208a)
- apparent KD of MS2 coat protein [1]: 31.8 nM
- apparent KD of MS2 coat protein [2]: 25.9 nM
- apparent KD of MS2 coat protein [3]: 42.9 nM

Sequence: GUUACAUGAGGAUCACCCAUGUAUGUGUGGGAGUAAGUGUCUUAGGAUAUCUAUGAUUUAAUUUGAGAGAAGGAAGAUUGUUGU [JMF's solution 87] (Eterna round: R96, puzzle: Same State NG 3)
- apparent KD of MS2 coat protein (input ligand: FMN 200 uM): 88.8 nM
- apparent KD of MS2 coat protein [4]: 76.4 nM
- apparent KD of MS2 coat protein (input ligand: none): 102 nM

Sequence: CCGAUGUGGGUACAGGAUAUGUGGGCCUCCACAUGAGGAUCACCCAUGUCGGAGGCAAUGCGGCUACAGAAGGGUGCGAGCUCGA [Tileorat] (puzzle: Same State 2)
- apparent KD of MS2 coat protein [1]: 14.1 nM
- apparent KD of MS2 coat protein [2]: 10.9 nM
- apparent KD of MS2 coat protein [3]: 13.5 nM

Sequence: GGCAUACAUGAGGAUCACCCAUGUUCAACCUAGAUAGGAUAUGGGCCUCUUGUAUUAGGCCCAGAAGGAUCUGUAA [Regea] (puzzle: Same State 1)
- apparent KD of MS2 coat protein [2]: 86.4 nM

Sequence: AGCGAGAUAGGCGAGGAUAUGCUUUUUUGCACAUGAGGAUCACCCAUGUCUUUGUUUUUUGUUUUGCAGAAGGCGCAUUCUCUUU [ak unbound state multiloop] (puzzle: Same State 2)
- apparent KD of MS2 coat protein [1]: 32.7 nM
- apparent KD of MS2 coat protein [2]: 14.3 nM
- apparent KD of MS2 coat protein [3]: 12.7 nM

Sequence: UCCUUGUGGGUAGGAUAUUUAGGAUAUGCGGAAGACUAAGUCUGUAGGUCACCUAACGCAGAAGGAGAGAAGGACCCUUCAGCA [pwkr ssNG2 2FMN + F9.32] (Eterna round: R96, puzzle: Same State NG 2)
- apparent KD of MS2 coat protein (input ligand: FMN 200 uM): 284 nM
- apparent KD of MS2 coat protein [4]: 87.9 nM
- apparent KD of MS2 coat protein (input ligand: none): 309 nM

Sequence: GUUACAUGAGGAUCACCCAUGUAUGUGUGGGAGUAAGUGUCUUAGGAUAUCUGUUAUUUAAUCUAAGAGAAGGAAGAUUGUUGU [JMF's solution 45] (Eterna round: R96, puzzle: Same State NG 3)
- apparent KD of MS2 coat protein (input ligand: FMN 200 uM): 113 nM
- apparent KD of MS2 coat protein [4]: 66.7 nM
- apparent KD of MS2 coat protein (input ligand: none): 94.1 nM

Sequence: GGAGCCGGUACUGAGGAUAUUCAUAUUAAAACAUGAGGAUCACCCAUGUAGGCCGGAAGGCCUUGGGAGAAGGCAGACCAGCUCG [Atgexeedri - 7] (puzzle: Same State 2)
- apparent KD of MS2 coat protein [1]: 23.1 nM
- apparent KD of MS2 coat protein [2]: 255 nM
- apparent KD of MS2 coat protein [3]: 441 nM

Sequence: GCGAUAUGAUGUUACAUGAGGAUCACCCAUGUAGCGACAGCUAAGGAUAUUGGAAAGGGAGGAGACGAGAAGGUAGGGUCACGC [AK SSNG3-V2-24] (Eterna round: R96, puzzle: Same State NG 3)
- apparent KD of MS2 coat protein (input ligand: FMN 200 uM): 22.9 nM
- apparent KD of MS2 coat protein [4]: 15.8 nM
- apparent KD of MS2 coat protein (input ligand: none): 19.7 nM

Sequence: AGUCCAGCCUGAGCUGGACAUUAGCAUGUACAUGAGGAUCACCCAUGUCAUGUACAAGCUAUUUGCUCGUCUUAAAA [Mat - Sensor - JL mod - D76] (Eterna round: R96, puzzle: Sensor for hsa-mir-208a)
- apparent KD of MS2 coat protein (input ligand: FMN 200 uM): 592 nM
- apparent KD of MS2 coat protein [4]: 15.7 nM
- apparent KD of MS2 coat protein (input ligand: none): 455 nM

Sequence: UCGGGCGUACUUGCUGACAUGAGGAUCACCCAUGUGCUUGGGAAGGAUAUGGUUCCGUUUCGGUUCCAGAAGGUCCUGGCUGCU [salish99_SSNG3_r04_316] (Eterna round: R96, puzzle: Same State NG 3)
- apparent KD of MS2 coat protein (input ligand: FMN 200 uM): 116 nM
- apparent KD of MS2 coat protein [4]: 47 nM
- apparent KD of MS2 coat protein (input ligand: none): 79.8 nM

Sequence: GGAUGAUGGACAGGAUAUUGAUUUUAAUGGUUUCAAGAAGGGUCUUUGAUUUAAACGACCAGUUACAUGAGGAUCACCCAUGUU [JR_SSNG1_Sub032] (Eterna round: R96, puzzle: Same State NG 1)
- apparent KD of MS2 coat protein (input ligand: FMN 200 uM): 40.1 nM
- apparent KD of MS2 coat protein [4]: 36.1 nM
- apparent KD of MS2 coat protein (input ligand: none): 52 nM

Sequence: UCUCGGGUCGUAGGAUAUGUAGGAUAUGUACAUGAGGAUCACCCAUGUCUACCAGAGACAGAAGGACAGAAGGACGAGCCGAUC [pwkr ssNG2 2FMN 1F5s.6] (Eterna round: R96, puzzle: Same State NG 2)
- apparent KD of MS2 coat protein (input ligand: FMN 200 uM): 20.9 nM
- apparent KD of MS2 coat protein [4]: 25.8 nM
- apparent KD of MS2 coat protein (input ligand: none): 43.7 nM

Sequence: AAUUAAUUAAUUAAGUACAUGAGGAUCACCCAUGUAAGUGAUCAGGAUAUCAGCUCGAUUAGAGCUGAGAAGGGAUCCAUGUAC [SSNG3/15-A2] (Eterna round: R96, puzzle: Same State NG 3)
- apparent KD of MS2 coat protein [4]: 400 nM

Sequence: AAUUAUUAACAUGAGGAUCACCCAUGUGUUUUUUGCUCGUCAUGUAUUAUUAUUAUUAUUAUUAUUAUUAUUAUUAA [my second RNA] (puzzle: Sensor for hsa-mir-208a version 2)
- apparent KD of MS2 coat protein [1]: 41.9 nM
- apparent KD of MS2 coat protein [2]: 18.8 nM
- apparent KD of MS2 coat protein [3]: 52.4 nM

Sequence: UGUUGUAUUACAGGAUAUCUAGUAUUUUUACUUAGAGAAGGGUAUUCACAUGAGGAUCACCCAUGUAUAUACGAGGAAGUUGUG [JMF's solution 50] (Eterna round: R96, puzzle: Same State NG 1)
- apparent KD of MS2 coat protein [4]: 22.9 nM

Sequence: GGCUAUCGCGUACGAUAGCUUAAGCAUGUACAUGAGGAUCACCCAUGUCAUGUACAGGCUUUUUGCUCGUCUUAUUG [JL-shm-2.35 JL mod] (puzzle: Sensor for hsa-mir-208a)
- apparent KD of MS2 coat protein [1]: 517 nM
- apparent KD of MS2 coat protein [2]: 17 nM
- apparent KD of MS2 coat protein [3]: 467 nM

Sequence: AUACAUGAGGAUCACCCAUGUGAGCAGAGAUAUCUGAUGUACAAGGAUAUCCGAGGGAUCCCGAUGGAGAAGGUGUGCCACCUG [Eternabot solution 22] (Eterna round: R96, puzzle: Same State NG 3)
- apparent KD of MS2 coat protein (input ligand: FMN 200 uM): 57.1 nM
- apparent KD of MS2 coat protein [4]: 43 nM
- apparent KD of MS2 coat protein (input ligand: none): 55.9 nM

Sequence: AGUCCACGCUGACGUGGACAAAAGCAUGUACAUGAGGAUCACCCAUGUCAUGUACAAGCUUUUUGCUCGUCUUAAAA [Mat - hsa-mir-208a - Mod of JL - D17] (Eterna round: R96, puzzle: Sensor for hsa-mir-208a)
- apparent KD of MS2 coat protein (input ligand: FMN 200 uM): 346 nM
- apparent KD of MS2 coat protein [4]: 13.2 nM
- apparent KD of MS2 coat protein (input ligand: none): 447 nM

Sequence: GCUAGGAUAUGACGAGGAUCACCCGUUAGAAGGAGCGAAAGCUAGGAUAUGACGAGGAUCACCCGUUAGAAGGAGCUGUCCUCU [pwkr ssNG3 DX 2xF5 +2xFMN.11] (Eterna round: R96, puzzle: Same State NG 3)
- apparent KD of MS2 coat protein (input ligand: FMN 200 uM): 200 nM
- apparent KD of MS2 coat protein [4]: 80.1 nM
- apparent KD of MS2 coat protein (input ligand: none): 111 nM

Sequence: GCUACCAAAGAAGCCAACAUGAGGAUCACCCAUGUAUGUUGGUAGGAUAUCGUAUGCAAAGCAUACGAGAAGGGCUAAGGUAGC [Mat - Same State NG 3 - JL Mod - D78] (Eterna round: R96, puzzle: Same State NG 3)
- apparent KD of MS2 coat protein [4]: 86.9 nM

Sequence: AAAAAACAUGAGGAUCACCCAUGUCAAAAGACAUGAGGAUAUGUGCAAAUAAAAUAAGAAACAGAAGGCAUGAAAA [salish99_ss1_r3_102] (puzzle: Same State 1)
- apparent KD of MS2 coat protein [1]: 69.1 nM
- apparent KD of MS2 coat protein [2]: 210 nM
- apparent KD of MS2 coat protein [3]: 229 nM

Sequence: UUGAAGAAUAAAGGAUAUUGAAUACAUAUGUUUAACAUGAGGAUCACCCAUGUGGGUUGCGGUAUCGAGAAGGUUAAUUACUAG [Mat - Same State NG 2 - JL mod - D11] (Eterna round: R96, puzzle: Same State NG 2)
- apparent KD of MS2 coat protein (input ligand: FMN 200 uM): 151 nM
- apparent KD of MS2 coat protein [4]: 124 nM
- apparent KD of MS2 coat protein (input ligand: none): 139 nM

Sequence: UAGCUCGUGUGAGGAUAUGCCGCCGUUUCGGCUGCAGAAGGUGCUACGUUACAUGAGGAUCACCCAUGUCUCUGUUGUUUCGUU [salish99_SSNG1_r04_956] (Eterna round: R96, puzzle: Same State NG 1)
- apparent KD of MS2 coat protein (input ligand: FMN 200 uM): 21.5 nM
- apparent KD of MS2 coat protein [4]: 17.5 nM
- apparent KD of MS2 coat protein (input ligand: none): 23.1 nM

Sequence: UCUCUUAUCGUAGGAUAUGUAGGAUAUGUACAUGAGGAUCACCCAUGUCUACCAGAGACAGAAGGACAGAAGGACGAACCACUC [pwkr ssNG2 2FMN 1F5s.4] (Eterna round: R96, puzzle: Same State NG 2)
- apparent KD of MS2 coat protein (input ligand: FMN 200 uM): 43.4 nM
- apparent KD of MS2 coat protein [4]: 51.7 nM
- apparent KD of MS2 coat protein (input ligand: none): 80.7 nM

Sequence: CUAAAACAUGAGGAUCACCCAUGUCAACAAAGUCGAGGAUAUGGGCAAAUAAAAUAAGAACCAGAAGGCGAAUAAG [salish99_SS1_r3_013] (puzzle: Same State 1)
- apparent KD of MS2 coat protein [1]: 81.9 nM
- apparent KD of MS2 coat protein [2]: 274 nM
- apparent KD of MS2 coat protein [3]: 543 nM

Sequence: AUGAAGAAUUAAGGAUAUUGAUUACAUAUGUUUAACAUGAGGAUCACCCAUGUGGGUUGCGGUAUCGAGAAGGUAAAAUAAUAG [Mat - same State NG 2 - JL mod - D85] (Eterna round: R96, puzzle: Same State NG 2)
- apparent KD of MS2 coat protein (input ligand: FMN 200 uM): 187 nM
- apparent KD of MS2 coat protein [4]: 123 nM
- apparent KD of MS2 coat protein (input ligand: none): 158 nM

Sequence: GGUACCAACACAGGAUAUGCUAUCCUUUGGGUAGCAGAAGGGUGGUACAUGAGGAUCACCCAUGUGGUGCCAGGGCGUGAGCCC [JL SSNG1 1.95] (Eterna round: R96, puzzle: Same State NG 1)
- apparent KD of MS2 coat protein (input ligand: FMN 200 uM): 383 nM
- apparent KD of MS2 coat protein [4]: 1190 nM
- apparent KD of MS2 coat protein (input ligand: none): 4440 nM

Sequence: GGACGUCAAUAUGAAUUCCCACAUGAGGAUCACCCAUGUCAUGAGGAUAUGGAUCCUAAUUGGAUCCAGAAGGCAUGGACGUCC [Fiskers NG3ss - 37] (Eterna round: R96, puzzle: Same State NG 3)
- apparent KD of MS2 coat protein (input ligand: FMN 200 uM): 17.8 nM
- apparent KD of MS2 coat protein [4]: 13 nM
- apparent KD of MS2 coat protein (input ligand: none): 17.8 nM

Sequence: UUCCCAGCGGGAGGAUAUGGUGCCUUGUUGGUGCUAGAAGGUCCAACAUGAGGAUCACCCAUGUGGGAGUGGUUGAGAGACCUC [SS NG10LRO11] (Eterna round: R96, puzzle: Same State NG 1)
- apparent KD of MS2 coat protein (input ligand: FMN 200 uM): 225 nM
- apparent KD of MS2 coat protein [4]: 200 nM
- apparent KD of MS2 coat protein (input ligand: none): 274 nM
